This is an account of results in article PMC12436594, “Probing three-dimensional cyclooctatetraene for nucleobase modification in aptamer selection”.

The target in this data set is PvLDH (lactate dehydrogenase) (Plasmodium vivax, UniProt Q4PRK9 1-316). Kind of data set: flow cytometry (Ni-NTA beads). The following applies: protein: recombinant; tags: His6; chain copies: 4.

B1: N15 unmodified (ssDNA)
DNA: CACTCACGTCAGTGACATGCAGGTCCTCTCGCCCCCAGTGACTTGCGTGGTCAGAAATTTCGCACCAC
On to B1, for which the Kd is approximately 208 nM.
